8 substances from patent US20040018487A1 can be followed below.

pEC50: −log10 of the molar value.

By pEC50 is commonly meant −log10 of the EC50, conventionally taken in molar units. A lower pEC50 goes with a high EC50.

Sequence of GST-DLG3 PDZ domains 1-2 (Q92796 other isoform, or with tags, fused parts or gaps limits assumed): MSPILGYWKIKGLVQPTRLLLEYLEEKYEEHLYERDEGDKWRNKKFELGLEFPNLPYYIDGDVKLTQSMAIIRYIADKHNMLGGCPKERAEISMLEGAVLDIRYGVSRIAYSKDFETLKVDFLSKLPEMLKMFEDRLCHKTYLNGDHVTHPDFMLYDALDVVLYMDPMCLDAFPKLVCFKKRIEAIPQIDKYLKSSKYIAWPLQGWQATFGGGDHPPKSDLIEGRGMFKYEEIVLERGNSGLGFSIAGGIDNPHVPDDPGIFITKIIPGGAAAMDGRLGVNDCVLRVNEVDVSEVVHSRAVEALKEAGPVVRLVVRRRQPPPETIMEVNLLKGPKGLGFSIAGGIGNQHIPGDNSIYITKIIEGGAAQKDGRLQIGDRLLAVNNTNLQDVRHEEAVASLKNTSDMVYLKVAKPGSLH
Sequence of GST-SAST1 KIAA PDZ domain (Q9Y2H9 other isoform, or with tags, fused parts or gaps): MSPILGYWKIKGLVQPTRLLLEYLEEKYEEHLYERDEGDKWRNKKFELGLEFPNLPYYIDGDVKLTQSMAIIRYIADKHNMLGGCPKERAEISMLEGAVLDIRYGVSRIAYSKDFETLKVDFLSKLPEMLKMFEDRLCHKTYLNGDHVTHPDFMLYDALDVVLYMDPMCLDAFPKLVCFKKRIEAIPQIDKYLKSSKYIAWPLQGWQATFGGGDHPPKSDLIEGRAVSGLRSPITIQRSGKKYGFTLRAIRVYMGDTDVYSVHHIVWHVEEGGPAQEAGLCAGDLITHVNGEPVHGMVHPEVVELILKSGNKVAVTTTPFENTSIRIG
Sequence of GST-Magi3 PDZ domain 1 (Q5TCQ9 other isoform, or with tags, fused parts or gaps limits assumed): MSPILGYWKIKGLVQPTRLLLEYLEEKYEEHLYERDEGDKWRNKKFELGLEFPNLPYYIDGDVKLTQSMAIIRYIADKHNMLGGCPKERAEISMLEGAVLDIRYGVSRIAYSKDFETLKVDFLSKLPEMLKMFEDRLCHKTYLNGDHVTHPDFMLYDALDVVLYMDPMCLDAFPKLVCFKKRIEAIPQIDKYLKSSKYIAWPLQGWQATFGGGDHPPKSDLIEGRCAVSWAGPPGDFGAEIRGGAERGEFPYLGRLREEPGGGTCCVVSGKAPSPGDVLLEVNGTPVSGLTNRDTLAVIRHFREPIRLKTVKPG

The target in this experiment is HPV 16 E6 C-terminal PL peptide (TQL), biotinylated (HPV 16). Nature of the experiment: G assay, HPV16 E6 PL peptide titrated against a constant amount of GST-PDZ.
For the substance GST-DLG2 PDZ domain 3, the pEC50 was 5.80.
Turning to “GST-DLG3 PDZ domains 1-2 (from UniProt Q92796 125-316)”, the pEC50 was 5.42.
On to GST-MAGI1 PDZ domain 2, for which the pEC50 is 7.25.
In the case of “GST-Magi3 PDZ domain 1 (from UniProt Q5TCQ9 18-106)”, the pEC50 is 6.51.
Consider “GST-SAST1 KIAA PDZ domain (from UniProt Q9Y2H9 960-1062)”, for which the pEC50 is 6.24.
For the substance GST-SAST2 PDZ domain, the pEC50 was 5.92.
The substance GST-SIP1 PDZ domain 1 showed a pEC50 of 5.12.
In turn, “GST-VARTUL (PDZ domain not stated) (from UniProt Q14160 720-955)” had a pEC50 of 6.03.
